From publication PMC4814140

Target: Arabidopsis thaliana aquaporin AtTIP2;1 (Arabidopsis thaliana) (UniProt Q41951)
Assay: crystal structure; AtTIP2;1 solubilised by n-octyl-β-D-glucoside, hanging drop vapor diffusion at room temperature, 50 mM magnesium/sodium acetate pH 5.0, 28% (v/v) PEG 400; space group I 4, 1.18 Å, partial twinning

stoichiometry N: 4
Substance: Arabidopsis thaliana aquaporin AtTIP2;1 (from UniProt Q41951 2-250) (natural protein)
